Numbering of substitutions follows the chain as printed. In names and notes the source's numbering stands. Where two headings read alike, the source gives them in different places.

The target in assay [1] is FcγRIIb (human, UniProt P31994 43-217). The assay is described as follows: SPR (Biacore), KD. Background: In SPR one partner is held on a chip, and binding of the other changes the refractive index at the surface.
For assay [2], the target named is T1, FcgRIIaR (human, UniProt P12318 34-217).
T1 construct: extracellular domain; also called FcγRIIa R; FcgRIIa type R; not shown: His tag attached to the C terminus
T1 sequence (looked up): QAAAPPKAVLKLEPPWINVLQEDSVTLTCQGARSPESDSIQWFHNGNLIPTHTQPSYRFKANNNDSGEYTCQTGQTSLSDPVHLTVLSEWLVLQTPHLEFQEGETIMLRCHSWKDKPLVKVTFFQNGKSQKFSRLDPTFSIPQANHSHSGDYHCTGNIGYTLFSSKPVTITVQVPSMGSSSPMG
Nature of the assay: SPR (Biacore); KD of H240-Kn033/H240-Hl033/L73-k0 divided by KD of the variant. The protocol:
(§1) Binding of the produced variants to FcgRIa, FcgRIIaR, FcgRIIaH, FcgRIIb, FcgRIIIaF, and FcgRIIIaV was measured according to the method of Reference Example 8.
(§2) Analysis of interaction between objective antibody and the FcγR was carried out using Biacore T100 (GE Healthcare), Biacore T200, Biacore A100, and Biacore 4000. HBS-EP+ (GE Healthcare) was used as the running buffer, and the measurement temperature was set to 25° C. Chips produced by immobilizing the antigen peptide by the amine coupling method to a Series S sensor Chip CM5 (GE Healthcare), chips produced by allowing preliminarily biotinylated antigen peptides to interact with and immobilize onto a Series S Sensor Chip SA (certified) (GE Healthcare), chips produced by immobilizing Protein L (ACTIGEN, BioVision) to Series S Sencor Chip CM5 (GE Healthcare), or chips produced by immobilizing Protein A/G (Thermo Scientific) to Series S Sencor Chip CM5 (GE Healthcare) were used. Antibodies of interest were captured onto these chips, and allowed to interact to each FcγR diluted with running buffer. To regenerate and repeatedly use the chip, the antibodies captured onto the chip were washed off by reacting 10 mM glycine-HCl, pH 1.5.

The target of assay [3] is T2, FcgRIIaH (human, UniProt P12318 34-217).
T2 construct: extracellular domain; also called FcγRIIa H; FcgRIIa type H; not shown: His tag attached to the C terminus
T2 sequence (looked up): T1 sequence (looked up) with R134H
Described as above. The procedure:
as §1, §2

Assay [4] concerns the target T3, FcgRIIb (human, UniProt P31994 43-217).
T3 construct: extracellular domain; also called FcγRIIb; 2b; not shown: His tag attached to the C terminus
T3 sequence (looked up): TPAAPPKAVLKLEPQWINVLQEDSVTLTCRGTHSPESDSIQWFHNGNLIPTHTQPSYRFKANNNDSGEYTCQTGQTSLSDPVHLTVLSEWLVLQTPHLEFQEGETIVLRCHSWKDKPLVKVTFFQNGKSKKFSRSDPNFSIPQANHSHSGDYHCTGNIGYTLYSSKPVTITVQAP
Described as above. The protocol: as §1, §2

Assay [5] has as its target T4, FcgRIIIaF (human, UniProt P08637 17-208).
T4 construct: extracellular domain; also called FcγRIIIa F; 3aF; not shown: His tag attached to the C terminus
Described as above. The procedure: as §1, §2

Assay [6] has as its target T5, FcgRIIIaV (human, UniProt P08637 17-208).
T5 construct: extracellular domain; also called FcγRIIIa V; 3aV; not shown: His tag attached to the C terminus
Described as above. The procedure:
as §1, §2

Assay [7] has as its target T6, FcgRIa (human, UniProt P12314 16-292).
T6 construct: extracellular domain; also called FcγRIa; FcγRI
Nature of the assay: SPR (Biacore), antibody captured, FcgR as analyte. The protocol:
(§3) Specifically, H240-Kn120 (SEQ ID NO: 99) resulting from introduction of S239M into H240-Kn067 and H240-Kn126 (SEQ ID NO: 100) resulting from introduction of Y235Q into H240-Kn120 were prepared according to the method described in Reference Example 1. […] Those described above were assayed for the binding to each FcgR according to the method described in Reference Example 8.
as §2

For assay [8], the target named is T7, FcgRIIa R (human, UniProt P12318 34-217).
T7 construct: extracellular domain; also called FcγRIIa R; FcγRIIa type R
T7 sequence (looked up): T1 sequence (looked up)
The assay is described as follows: SPR (Biacore), antibody captured, FcgR as analyte. The protocol: as §3, §2

Assay [9] has as its target T8, FcgRIIa H (human, UniProt P12318 34-217).
T8 construct: extracellular domain; also called FcγRIIa H; FcγRIIa type H
T8 sequence (looked up): T1 sequence (looked up) with R134H
Nature of the assay: SPR (Biacore), antibody captured, FcgR as analyte. The procedure:
as §3, §2

For assay [10], the target named is T9, FcgRIIb (human, UniProt P31994 43-217).
T9 construct: extracellular domain; also called FcγRIIb; CD32B
T9 sequence (looked up): T3 sequence (looked up)
Nature of the assay: SPR (Biacore), antibody captured, FcgR as analyte. The procedure: as §3, §2

Assay [11] deals with T10, FcgRIIIa F (human, UniProt P08637 17-208).
T10 construct: extracellular domain; polymorphic site made after J. Clin. Invest; also called FcγRIIIa F
T10 sequence (P08637 17-208): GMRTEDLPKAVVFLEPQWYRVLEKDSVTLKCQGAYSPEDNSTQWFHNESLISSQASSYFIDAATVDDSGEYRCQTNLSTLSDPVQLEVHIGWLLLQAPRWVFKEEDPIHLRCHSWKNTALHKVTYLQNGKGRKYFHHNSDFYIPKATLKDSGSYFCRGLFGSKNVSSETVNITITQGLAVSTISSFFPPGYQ
The assay is described as follows: SPR (Biacore), antibody captured, FcgR as analyte. The protocol: as §3, §2

Assay [12] addresses T11, FcgRIIIa V (human, UniProt P08637 17-208).
T11 construct: extracellular domain; polymorphic site made after J. Clin. Invest; also called FcγRIIIa V
The assay is described as follows: SPR (Biacore), antibody captured, FcgR as analyte. The protocol:
as §3, §2

In assay [13] the target is T7, FcgRIIa R. The assay is described as follows: SPR (Biacore), antibody captured, FcgR as analyte. The protocol: (§4) Then, H240-Hl136 (SEQ ID NO: 97) resulting from introduction of L234Y/L235Y/G236W/H268D/S298A/A327D into H240-Hl033 and H240-Kn133 (SEQ ID NO: 98) resulting from introduction of D270E/K326D/A330K/K334E into H240-Kn033 were constructed according to the method described in Reference Example 1.
as §2, with “buffer.” for “buffer. To regenerate and repeatedly use the chip, the antibodies captured onto the chip were washed off by reacting 10 mM glycine-HCl, pH 1.5.”
The source holds these as a separate data set.

In assay [14] the target is T8, FcgRIIa H. The assay is described as follows: SPR (Biacore), antibody captured, FcgR as analyte. The procedure:
as §4
as §2, with “buffer.” for “buffer. To regenerate and repeatedly use the chip, the antibodies captured onto the chip were washed off by reacting 10 mM glycine-HCl, pH 1.5.”
The source holds these as a separate data set.

Assay [15] has as its target T10, FcgRIIIa F. Nature of the assay: SPR (Biacore), antibody captured, FcgR as analyte. The procedure:
as §4
as §2, with “buffer.” for “buffer. To regenerate and repeatedly use the chip, the antibodies captured onto the chip were washed off by reacting 10 mM glycine-HCl, pH 1.5.”
The source holds these as a separate data set.

The target in assay [16] is T11, FcgRIIIa V. The assay is described as follows: SPR (Biacore), antibody captured, FcgR as analyte. The protocol:
as §4
as §2, with “buffer.” for “buffer. To regenerate and repeatedly use the chip, the antibodies captured onto the chip were washed off by reacting 10 mM glycine-HCl, pH 1.5.”
This is another data set of the same source.

T11 sequence (P08637 17-208 F176V limits assumed): as the sequence (P08637 17-208) above, with F160V counted along it
T5 sequence (P08637 17-208 F176V limits assumed): as the sequence (P08637 17-208) above, with F160V counted along it
T6 sequence (P12314 16-292): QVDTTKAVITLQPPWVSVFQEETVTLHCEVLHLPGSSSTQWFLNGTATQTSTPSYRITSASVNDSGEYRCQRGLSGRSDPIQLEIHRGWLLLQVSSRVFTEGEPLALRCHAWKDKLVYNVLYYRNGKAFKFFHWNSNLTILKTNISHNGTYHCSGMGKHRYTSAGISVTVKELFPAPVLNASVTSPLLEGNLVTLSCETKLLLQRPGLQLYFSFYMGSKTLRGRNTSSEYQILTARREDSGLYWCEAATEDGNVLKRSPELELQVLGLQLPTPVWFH
T4 sequence (P08637 17-208): as the sequence (P08637 17-208) above

B1: H240-Kn120/H240-Hl068/L73-k0 (antibody, human IgG1, kappa)
heavy 1: QDQLVQSGAEVKKPGASVKVSCKASGFNIKDTYIQWVRQAPGQGLEWMGRIDPLRKQTKYREKFEGRVTITADTSTNTAYMELSSLRSEDTAVYYCVRSGREFDYWGQGTLVTVSSASTKGPSVFPLAPSSKSTSGGTAALGCLVKDYFPEPVTVSWNSGALTSGVHTFPAVLQSSGLYSLSSVVTVPSSSLGTQTYICNVNHKPSNTKVDKKVEPKSCDKTHTCPPCPAPEYYWGPMVFLFPPKPKDTLMISRTPEVTCVVVDVSDEDPEVKFNWYVDGVEVHNAKTKPREEQYNATYRVVSVLTVLHQDWLNGKEYKCKVSNKDLPAPIEKTISKAKGQPREPQVCTLPPSRDELTKNQVSLWCLVKGFYPSDIAVEWESNGQPENNYKTTPPVLDSDGSFFLYSKLTVDKSRWQQGNVFSCSVMHEALHNHYTQKSLSLSP
heavy 2: QDQLVQSGAEVKKPGASVKVSCKASGFNIKDTYIQWVRQAPGQGLEWMGRIDPLRKQTKYREKFEGRVTITADTSTNTAYMELSSLRSEDTAVYYCVRSGREFDYWGQGTLVTVSSASTKGPSVFPLAPSSKSTSGGTAALGCLVKDYFPEPVTVSWNSGALTSGVHTFPAVLQSSGLYSLSSVVTVPSSSLGTQTYICNVNHKPSNTKVDKKVEPKSCDKTHTCPPCPAPELLGGPSVFLFPPKPKDTLMISRTPEVTCVVVDVSHEEPEVKFNWYVDGVEVHNAKTKPREEQYNSTYRVVSVLTVLHQDWLNGKEYKCKVSNDALPKPIEETISKAKGQPREPQVYTLPPSRCELTKNQVSLSCAVKGFYPSDIAVEWESNGQPENNYKTTPPVLDSDGSFFLVSKLTVDKSRWQQGNVFSCSVMHEALHNHYTQKSLSLSP
light: DIQMTQSPSSLSASVGDRVTITCRASQDIHKYIAWYQQKPGQAPRLLIQYTSTLQPGVPSRFSGSGSGTDYTFTISSLQPEDIATYYCLQYEQLRTFGGGTKVEIKRTVAAPSVFIFPPSDEQLKSGTASVVCLLNNFYPREAKVQWKVDNALQSGNSQESVTEQDSKDSTYSLSSTLTLSKADYEKHKVYACEVTHQGLSSPVTKSFNRGEC
notes: S239M introduced into H240-Kn067
As for B1, the “fold FcgRIIb-binding activity against native IgG1” value in assay [1] is approximately 50 times.

B2: H240-afucosyl_G1d/L73-k0 (antibody, human IgG1, kappa)
heavy: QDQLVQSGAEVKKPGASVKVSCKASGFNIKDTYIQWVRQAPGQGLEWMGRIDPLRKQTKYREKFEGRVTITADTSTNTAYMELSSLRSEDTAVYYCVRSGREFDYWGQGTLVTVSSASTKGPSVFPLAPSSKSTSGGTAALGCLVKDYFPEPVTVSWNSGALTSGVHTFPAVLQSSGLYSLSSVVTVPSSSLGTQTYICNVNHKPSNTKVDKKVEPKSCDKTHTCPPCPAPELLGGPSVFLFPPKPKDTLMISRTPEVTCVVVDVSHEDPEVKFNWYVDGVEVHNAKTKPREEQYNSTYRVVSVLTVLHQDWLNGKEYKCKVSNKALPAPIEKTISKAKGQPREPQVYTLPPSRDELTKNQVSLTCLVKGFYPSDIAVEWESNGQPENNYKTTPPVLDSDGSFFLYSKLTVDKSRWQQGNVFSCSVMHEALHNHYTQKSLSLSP
light: B1 light
modifications: afucosylated: fucose removed from the sugar chain of H240-G1d
notes: also called afucosylated antibody
Consider B2, for which, in assay [2], the “fold 2aR” value is 1.5 fold. Further, the “fold 2aH” value in assay [3] came out at 0.7 fold. Moreover, the “fold 2b” value in assay [4] is 1.3 fold. Also, the “fold 3aF” value in [5] stood at 3.7 fold. For the same molecule, the “fold 3aV” value in assay [6] worked out at 7 fold.

B3: H240-Kn033/H240-Hl033/L73-k0 (antibody, human IgG1, kappa)
heavy 1: not shown
heavy 2: not shown
light: B1 light
notes: Anti-epiregulin IgG1 with only knobs-into-holes alterations
Regarding B3, the “fold 2aR” value in [2] was found to be 1 fold. Also, in [3], the “fold 2aH” value is 1 fold. Further, the “fold 2b” value in assay [4] turned out to be 1 fold. For the same molecule, in assay [5], the “fold 3aF” value came to 1 fold. For the same molecule, the “fold 3aV” value in [6] came to 1 fold.

B4: H240-Kn126/H240-Hl068/L73-k0 (antibody, human IgG1, kappa)
heavy 1: B1 heavy 1 with Y234Q
heavy 2: B1 heavy 2
light: B1 light
notes: H240-Kn126: Y235Q introduced into H240-Kn120
B4: the Kd (usually a measure of binding affinity in units of concentration) was 0.4 nM in assay [7]; 76 nM in [8]; 170 nM in [9]; 520 nM in assay [10]; 3.7 nM in assay [11]; 0.64 nM in [12].

B5: H240-Kn067/H240-Hl068/L73-k0 (antibody, human IgG1, kappa)
heavy 1: B1 heavy 1 with M238S
heavy 2: B1 heavy 2
light: B1 light
notes: Heterodimerized: L234Y/L235Y/G236W/H268D/S298A/A327D in the knob chain, D270E/K326D/A330K/K334E in the hole chain
Regarding B5, the Kd stood at 49 nM in assay [13]; 94 nM in assay [14]; 7.1 nM in [15]; 1.6 nM in assay [16]; 0.26 nM in assay [7]; 49 nM in assay [8]. For the same molecule, the Kd is 94 nM in assay [9], 370 nM in [10], 7.1 nM in [11] and 1.6 nM in assay [12].

Source of the values: US20150344570A1 (published 2015).
